Experimental findings from publication PMC6286387, “Physical and thermodynamic characterization of the rice gibberellin receptor/gibberellin/DELLA protein complex” (Scientific Reports, 2018) are described below.

Usually stoichiometry N stands for a count of units in the complex or per binding partner.

The target of one data set is T1, OsGID1 (Oryza sativa, UniProt Q6L545).
T1 construct: gene GID1; recombinant, purified
T1 sequence (Q6L545 1-354): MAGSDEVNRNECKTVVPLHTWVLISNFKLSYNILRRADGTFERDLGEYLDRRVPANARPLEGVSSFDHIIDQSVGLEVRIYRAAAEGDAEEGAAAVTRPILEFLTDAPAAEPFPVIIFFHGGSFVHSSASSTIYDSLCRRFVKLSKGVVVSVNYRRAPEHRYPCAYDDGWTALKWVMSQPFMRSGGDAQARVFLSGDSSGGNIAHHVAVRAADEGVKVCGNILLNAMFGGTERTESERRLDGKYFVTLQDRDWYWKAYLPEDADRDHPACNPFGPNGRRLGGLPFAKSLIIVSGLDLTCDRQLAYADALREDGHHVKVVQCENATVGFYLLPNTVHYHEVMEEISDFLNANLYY
The data set can be described thus: (method not stated for the binary complex). Type of data set: binding. The settings on record: read-out: Kb (converted).

For data set [1], the target named is T2, OsGID1 (rice gibberellin receptor GID1), Trx-free, used as the OsGID1/GA3 complex (rice (Oryza sativa), UniProt Q6L545 1-354).
T2 construct: Gibberellin receptor GID1 of rice (Oryza sativa); theoretical MW of the dimer printed as 79.2 kDa; The printed mass (39.6 kDa a monomer) fits the whole protein; source: recombinant, purified
T2 sequence (looked up): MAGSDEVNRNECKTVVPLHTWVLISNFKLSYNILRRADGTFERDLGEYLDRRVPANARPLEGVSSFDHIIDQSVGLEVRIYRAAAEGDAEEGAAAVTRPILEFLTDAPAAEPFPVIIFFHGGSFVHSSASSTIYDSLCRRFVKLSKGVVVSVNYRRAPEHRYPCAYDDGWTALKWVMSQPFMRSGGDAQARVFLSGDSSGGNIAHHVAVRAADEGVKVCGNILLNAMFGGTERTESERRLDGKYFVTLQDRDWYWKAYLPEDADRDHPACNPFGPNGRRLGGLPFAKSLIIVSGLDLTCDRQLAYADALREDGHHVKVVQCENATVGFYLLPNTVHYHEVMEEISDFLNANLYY
The data set can be described thus: ITC; 10 μl aliquants of 400 μM OsGID1/GA3 into 1.4482 ml of 50 μM SLR1 variant, 30 °C, 20 mM sodium phosphate (pH 7.5), 150 mM NaCl, 2.0 mM β-ME, 0.1 mM GA3. The conditions noted are these: both partners purified. On the technique in general: ITC needs no label: the signal is the heat of the interaction.

Data set [2] concerns the molecule itself. The data set can be described thus: SEC; each protein chromatographed alone on Superdex 200 10/300 GL, 20 mM sodium phosphate (pH 7.5), 150 mM NaCl, 2 mM β-ME, 0.1 mM GA3; size against molecular weight standards. (In gel filtration, larger molecules generally elute earlier.)
Data set [3] addresses T3, Trx-OsGID1, used as the Trx-OsGID1/GA3 complex (rice (Oryza sativa), UniProt Q6L545 1-354).
T3 construct: Gibberellin receptor GID1 of rice (Oryza sativa); GA3 (0.1 mM) was present in the gel filtration; also called Trx-GID1/GA3; source: recombinant, purified
T3 sequence (looked up): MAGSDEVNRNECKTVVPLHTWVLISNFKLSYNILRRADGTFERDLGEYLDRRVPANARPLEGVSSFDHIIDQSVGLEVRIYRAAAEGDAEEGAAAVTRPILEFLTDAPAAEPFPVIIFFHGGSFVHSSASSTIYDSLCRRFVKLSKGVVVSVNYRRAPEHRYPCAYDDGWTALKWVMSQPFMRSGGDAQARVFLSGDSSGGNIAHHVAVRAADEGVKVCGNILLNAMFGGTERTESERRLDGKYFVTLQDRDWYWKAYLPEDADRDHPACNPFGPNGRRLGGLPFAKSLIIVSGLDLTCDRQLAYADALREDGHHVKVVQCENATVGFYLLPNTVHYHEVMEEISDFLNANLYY
The data set can be described thus: SEC; purified Trx-OsGID1 and a Trx-SLR1 truncation mutant incubated together at 4 °C for 30 min with 10^-4 M GA3; Superdex 200 10/300 GL in 20 mM sodium phosphate (pH 7.5), 150 mM NaCl, 2 mM β-ME, 0.1 mM GA3; fractions on SDS-PAGE. The conditions noted are these: both partners purified.

Data set [4] deals with the molecule itself. The data set can be described thus: ITC; dilution series: 10 μl aliquants of 0.4 mM SLR1(M28-A112) into 1.4482 ml of buffer without OsGID1/GA3, 30 °C; dimer to monomers.
For data set [5], the target named is T2, OsGID1 (rice gibberellin receptor …). The data set can be described thus: ITC; twenty 10 μl injections of 400 μM SLR1(M28-A112) into 50 μM OsGID1/GA3, 30 °C, 20 mM sodium phosphate (pH 7.5), 150 mM NaCl, 2.0 mM β-ME, 0.1 mM GA3. The settings on record: both partners purified.
For data set [6] the target is unchanged. The data set can be described thus: ITC; 10 μl aliquants of 400 μM OsGID1/GA3 into 1.4482 ml of 50 μM SLR1 variant, 30 °C, 20 mM sodium phosphate (pH 7.5), 150 mM NaCl, 2.0 mM β-ME, 0.1 mM GA3. The settings on record: both partners purified. This is another data set of the same source.

On to `C=C1C[C@]23C[C@@]1(O)CC[C@H]2[C@@]12C=C[C@H](O)[C@@](C)(C(=O)O1)[C@H]2[C@@H]3C(=O)O` [GA3], for which the Kd on OsGID1 was 3.57 µM.

Take `C=C1C[C@]23C[C@H]1CC[C@H]2[C@@]12C=C[C@H](O)[C@@](C)(C(=O)O1)[C@H]2[C@@H]3C(=O)O` [GA7]: on OsGID1, the Kd was 0.238 µM.

Consider `C=C1C[C@]23C[C@H]1CC[C@H]2[C@@]12CC[C@H](O)[C@@](C)(C(=O)O1)[C@H]2[C@@H]3C(=O)O` [GA4], for which the Kd on OsGID1 is 0.192 µM.

For `C=C1C[C@]23C[C@@]1(O)CC[C@H]2[C@@]12CC[C@H](O)[C@@](C)(C(=O)O1)[C@H]2[C@@H]3C(=O)O` [GA1], at OsGID1, the Kd is 1.92 µM.

B1: SLR1(M28-A112) ΔSPACE(G69-F83) (domain or fragment, rice (Oryza sativa), UniProt Q7G7J6 28-112, looked up)
chain: MAGAAGEEEDVDELLAALGYKVRSSDMADVAQKLEQLEMAMVSHLATDTVHYNPSDLSSWVESMLSELNA
notes: DELLA protein SLR1 of rice (Oryza sativa), residues M28-A112 with G69-F83 deleted; Named without Trx in the ITC experiments; removal of the tag is told in general in the methods; also called SLR(M28-A112)ΔSPACE; source: E. coli, purified (HiTrap Chelating, Superdex 200; thrombin, HiTrap Chelating, Superdex 75); not shown: Trx, N-terminal, cleaved; His6, N-terminal, cleaved
B1: the Ka in data set [1] is 390000 M⁻¹.

B2: Trx-SLR1(M1-L110) (domain or fragment, rice (Oryza sativa), UniProt Q7G7J6 1-110, looked up)
chain: MKREYQEAGGSSGGGSSADMGSCKDKVMAGAAGEEEDVDELLAALGYKVRSSDMADVAQKLEQLEMAMGMGGVSAPGAADDGFVSHLATDTVHYNPSDLSSWVESMLSEL
notes: DELLA protein SLR1 of rice (Oryza sativa), residues M1-L110; Thioredoxin-hexahistidine fusion from the vector pDEST-trx; source: E. coli, purified (HiTrap Chelating, Superdex 200); not shown: Trx, N-terminal, kept; His6, N-terminal, kept
For B2, the binding result in data set [2] and in data set [3] was “binds” in each case.

B3: SLR1(M1-H327) (domain or fragment, rice (Oryza sativa), UniProt Q7G7J6 1-327, looked up)
chain: MKREYQEAGGSSGGGSSADMGSCKDKVMAGAAGEEEDVDELLAALGYKVRSSDMADVAQKLEQLEMAMGMGGVSAPGAADDGFVSHLATDTVHYNPSDLSSWVESMLSELNAPLPPIPPAPPAARHASTSSTVTGGGGSGFFELPAAADSSSSTYALRPISLPVVATADPSAADSARDTKRMRTGGGSTSSSSSSSSSLGGGASRGSVVEAAPPATQGAAAANAPAVPVVVVDTQEAGIRLVHALLACAEAVQQENFAAAEALVKQIPTLAASQGGAMRKVAAYFGEALARRVYRFRPADSTLLDAAFADLLHAHFYESCPYLKFAH
notes: DELLA protein SLR1 of rice (Oryza sativa), residues M1-H327; Named without Trx in the ITC experiments; removal of the tag is told in general in the methods; also called SLR(M1-H327); source: E. coli, purified (HiTrap Chelating, Superdex 200; thrombin, HiTrap Chelating, Superdex 75); not shown: Trx, N-terminal, cleaved; His6, N-terminal, cleaved
On to B3, for which the Ka in data set [1] came out at 2e+06 M⁻¹.

B4: Trx-SLR1(M1-E104) (domain or fragment, rice (Oryza sativa), UniProt Q7G7J6 1-104, looked up)
chain: MKREYQEAGGSSGGGSSADMGSCKDKVMAGAAGEEEDVDELLAALGYKVRSSDMADVAQKLEQLEMAMGMGGVSAPGAADDGFVSHLATDTVHYNPSDLSSWVE
notes: DELLA protein SLR1 of rice (Oryza sativa), residues M1-E104; Thioredoxin-hexahistidine fusion from the vector pDEST-trx; source: E. coli, purified (HiTrap Chelating, Superdex 200); not shown: Trx, N-terminal, kept; His6, N-terminal, kept
As for B4, in data set [2], the “stoichiometry N” value turned out to be 2.

B5: Trx-SLR1(M28-A112) (domain or fragment, rice (Oryza sativa), UniProt Q7G7J6 28-112, looked up)
chain: MAGAAGEEEDVDELLAALGYKVRSSDMADVAQKLEQLEMAMGMGGVSAPGAADDGFVSHLATDTVHYNPSDLSSWVESMLSELNA
notes: DELLA protein SLR1 of rice (Oryza sativa), residues M28-A112; theoretical monomeric MW of the fusion 29.3 kDa; Thioredoxin-hexahistidine fusion from the vector pDEST-trx; source: E. coli, purified (HiTrap Chelating, Superdex 200); not shown: Trx, N-terminal, kept; His6, N-terminal, kept
For B5, the “stoichiometry N” value in data set [2] is 2; in data set [3] it was 1.

B6: SLR1(M28-A112), Trx-free (domain or fragment, rice (Oryza sativa), UniProt Q7G7J6 28-112, looked up)
chain: MAGAAGEEEDVDELLAALGYKVRSSDMADVAQKLEQLEMAMGMGGVSAPGAADDGFVSHLATDTVHYNPSDLSSWVESMLSELNA
notes: DELLA protein SLR1 of rice (Oryza sativa), residues M28-A112; 13C/15N-labelled for the NMR spectra; also called SLR(M28-A112); source: E. coli, purified (HiTrap Chelating, Superdex 200; thrombin, HiTrap Chelating, Superdex 75); not shown: Trx, N-terminal, cleaved; His6, N-terminal, cleaved
In data set [4], B6 registered a Kd of 1600 µM and a dH of -66 kcal/mol. Also, in data set [5], the Ka was 1.2e+07 M⁻¹, the dH was -8.75 kcal/mol and the “stoichiometry N” value was found to be 0.88. For the same molecule, in data set [6], the Ka stood at 1.1e+07 M⁻¹. The Ka in data set [1] is 2.9e+07 M⁻¹.

B7: SLR1(M1-A172) (domain or fragment, rice (Oryza sativa), UniProt Q7G7J6 1-172, looked up)
chain: MKREYQEAGGSSGGGSSADMGSCKDKVMAGAAGEEEDVDELLAALGYKVRSSDMADVAQKLEQLEMAMGMGGVSAPGAADDGFVSHLATDTVHYNPSDLSSWVESMLSELNAPLPPIPPAPPAARHASTSSTVTGGGGSGFFELPAAADSSSSTYALRPISLPVVATADPSA
notes: DELLA protein SLR1 of rice (Oryza sativa), residues M1-A172; Named without Trx in the ITC experiments; removal of the tag is told in general in the methods; also called SLR(M1-A172); source: E. coli, purified (HiTrap Chelating, Superdex 200; thrombin, HiTrap Chelating, Superdex 75); not shown: Trx, N-terminal, cleaved; His6, N-terminal, cleaved
As for B7, the Ka in data set [1] is 2.8e+07 M⁻¹.
